# Where two headings read alike, the source gives them in different places.
# B1: KaiC_(S431E) (enzyme, Thermosynechococcus elongatus, UniProt Q79V60 1-518, looked up)
# chain: MTNLPEHQSSPTEQSSAEVKKIPTMIEGFDDISHGGLPQGRTTLVSGTSGTGKTLFAVQFLYNGITIFNEPGIFVTFEESPQDIIKNALSFGWNLQSLIDQGKLFILDASPDPDGQEVAGDFDLSALIERIQYAIRKYKATRVSIDSVTAVFQQYDAASVVRREIFRLAFRLKQLGVTTIMTTERVDEYGPVARFGVEEFVSDNVVILRNVLEGERRRRTVEILKLRGTTHMKGEYPFTINNGINIFPLGAMRLTQRSSNVRVSSGVKTLDEMCGGGFFKDSIILATGATGTGKTLLVSKFLETGCQQGERALLFAYEESRAQLSRNASSWGIDFEELERRGLLRIICAYPESAGLEDHLQIIKSEIADFKPSRVAIDSLSALARGVSNNAFRQFVIGVTGFAKQEEITGFFTNTTDQFMGSNSITESHIETITDTILLLQYVEIRGEMSRAINVFKMRGSWHDKGIREYVITEKGAEIRDSFRNFEGIISGTPTRISVDEKTELARIAKGMQDLESE
# B2: KaiA_(cryst) (domain or fragment, Thermosynechococcus elongatus)
# chain: SNVDPQHRLSQKLKERLGYLGVYYKRDTAFFFRRMSPADKRKLLDELRSIYRTIVLEYFNTDAKVNERIDEFVSKAFFADISVSQVLEIHVELMDTFSKQLKLEGRSEDILLDYRLTLIDVIAHLSEMYRRSIPREV
# Assays:
# [1] = biological target: the molecule itself; experiment: crystal structure
# [2] = biological target: the molecule itself; experiment: crystal structure; remark: listed apart in the source
Protein,stoichiometry N [1],stoichiometry N [2]
B1,6,
B2,,2

# Source: article PMC5441561 (Science (New York, N.Y.), 2017)
